Experimental findings from the supplement of paper PMC5998384 are described below.

For series [1], the system named is HeLa Kyoto. Description: melting temperature (median over replicates), in situ; higher = more thermally stable.
Series [2] concerns HeLa Kyoto. Description: solubility in G1/S (NP-40 vs SDS abundance) (log2 ratio); higher = more soluble. To be noted: cell cycle stage: G1/S.
The test system of series [3] is HeLa Kyoto. Description: solubility change mitosis vs G1/S (difference of NP-40 vs SDS log2 ratios) (log2 ratio difference); higher = more soluble in mitosis.
For series [4], the system named is HeLa Kyoto. Description: thermal stability score vs G1/S (z-score of summed log2 fold changes over temperatures); higher = more thermally stable than in G1/S.
Where [5] appears, read: cell cycle stage: early G1 (4.5 h after nocodazole release).
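Throughout, for melting temperature (median over replicates), in situ: HeLa Kyoto cells synchronized by double thymidine or nocodazole block, proteins quantified by TMT10plex mass spectrometry, three independent biological replicates.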
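Throughout, for solubility change mitosis vs G1/S (difference of NP-40 vs SDS log2 ratios): synchronized HeLa Kyoto cells (double thymidine block for G1/S, nocodazole release for mitosis), protein amounts in NP-40 versus SDS lysates quantified by mass spectrometry, three biological replicates.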
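Throughout, for solubility in G1/S (NP-40 vs SDS abundance): HeLa Kyoto cells arrested at G1/S by double thymidine block, proteins quantified by TMT10plex mass spectrometry in mild NP-40 versus SDS extracts, three biological replicates.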
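Throughout, for thermal stability score vs G1/S (z-score of summed log2 fold changes over temperatures): synchronized HeLa Kyoto cells, proteins quantified by TMT10plex mass spectrometry, three biological replicates, mitosis taken 0.5 h after nocodazole release, G1/S directly after double thymidine block.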

Consider “MAGKAHRLSAEERDQLLPNLRAVGWNELEGRDAIFKQFHFKDFNRAFGFMTRVALQAEKLDHHPEWFNVYNKVHITLSTHECAGLSERDINLASFIEQVAVSMT [PCBD1]”, for which the melting temperature in the series on HeLa Kyoto [1] (cell cycle stage: G1/S) came to 54.6 °C; in the series with HeLa Kyoto [1] (cell cycle stage: mitosis), 55.6 °C. The “solubility in G1/S (log2)” value in the series with HeLa Kyoto [2] came out at 0.0398. In the series on HeLa Kyoto [3], the “solubility change mitosis (log2)” value is 0.0567. The thermal stability score in the series with HeLa Kyoto [4] (setting [5]) was 1.22; in the series with HeLa Kyoto [4] (cell cycle stage: mitosis), -0.726.

With “MAGKKNVLSSLAVYAEDSEPESDGEAGIEAVGSAAEEKGGLVSDAYGEDDFSRLGGDEDGYEEEEDENSRQSEDDDSETEKPEADDPKDNTEAEKRDPQELVASFSERVRNMSPDEIKIPPEPPGRCSNHLQDKIQKLYERKIKEGMDMNYIIQRKKEFRNPSIYEKLIQFCAIDELGTNYPKDMFDPHGWSEDSYYEALAKAQKIEMDKLEKAKKERTKIEFVTGTKKGTTTNATSTTTTTASTAVADAQKRKSKWDSAIPVTTIAQPTILTTTATLPAVVTVTTSASGSKTTVISAVGTIVKKAKQ [SAP30BP]”, the figures for the melting temperature in the series on HeLa Kyoto [1] (cell cycle stage: G1/S) and with HeLa Kyoto [1] (cell cycle stage: mitosis) were 52.6 °C and 53.6 °C, respectively. Besides, the “solubility in G1/S (log2)” value with HeLa Kyoto [2] worked out at 0.144. The “solubility change mitosis (log2)” value in the series on HeLa Kyoto [3] was -0.0287. Also, the thermal stability score with HeLa Kyoto [4] (setting [5]) turned out to be 0.846; in the series with HeLa Kyoto [4] (cell cycle stage: mitosis), 1.18.

On to “MAGPGPGAVLESPRQLLGRVRFLAEAARSLRAGRPLPAALAFVPREVLYKLYKDPAGPSRVLLPVWEAEGLGLRVGAAGPAPGTGSGPLRAARDSIELRRGACVRTTGEELCNGHGLWVKLTKEQLAEHLGDCGLQEGWLLVCRPAEGGARLVPIDTPNHLQRQQQLFGVDYRPVLRWEQVVDLTYSHRLGSRPQPAEAYAEAVQRLLYVPPTWTYECDEDLIHFLYDHLGKEDENLGSVKQYVESIDVSSYTEEFNVSCLTDSNADTYWESDGSQCQHWVRLTMKKGTIVKKLLLTVDTTDDNFMPKRVVVYGGEGDNLKKLSDVSIDETLIGDVCVLEDMTVHLPIIEIRIVECRDDGIDVRLRGVKIKSSRQRELGLNADLFQPTSLVRYPRLEGTDPEVLYRRAVLLQRFIKILDSVLHHLVPAWDHTLGTFSEIKQVKQFLLLSRQRPGLVAQCLRDSESSKPSFMPRLYINRRLAMEHRACPSRDPACKNAVFTQVYEGLKPSDKYEKPLDYRWPMRYDQWWECKFIAEGIIDQGGGFRDSLADMSEELCPSSADTPVPLPFFVRTANQGNGTGEARDMYVPNPSCRDFAKYEWIGQLMGAALRGKEFLVLALPGFVWKQLSGEEVSWSKDFPAVDSVLVKLLEVMEGMDKETFEFKFGKELTFTTVLSDQQVVELIPGGAGIVVGYGDRSRFIQLVQKARLEESKEQVAAMQAGLLKVVPQAVLDLLTWQELEKKVCGDPEVTVDALRKLTRFEDFEPSDSRVQYFWEALNNFTNEDRSRFLRFVTGRSRLPARIYIYPDKLGYETTDALPESSTCSSTLFLPHYASAKVCEEKLRYAAYNCVAIDTDMSPWEE [HECTD3]”, for which the melting temperature with HeLa Kyoto [1] (cell cycle stage: G1/S) amounted to 51.8 °C; with HeLa Kyoto [1] (cell cycle stage: mitosis), 51 °C. In the series with HeLa Kyoto [2], the “solubility in G1/S (log2)” value is -0.0837. Further, the “solubility change mitosis (log2)” value in the series with HeLa Kyoto [3] is -0.123. Moreover, the thermal stability score is 0.000139 in the series on HeLa Kyoto [4] (setting [5]) and -0.669 with HeLa Kyoto [4] (cell cycle stage: mitosis).

As to “MAGPGWGPPRLDGFILTERLGSGTYATVYKAYAKKDTREVVAIKCVAKKSLNKASVENLLTEIEILKGIRHPHIVQLKDFQWDSDNIYLIMEFCAGGDLSRFIHTRRILPEKVARVFMQQLASALQFLHERNISHLDLKPQNILLSSLEKPHLKLADFGFAQHMSPWDEKHVLRGSPLYMAPEMVCQRQYDARVDLWSMGVILYEALFGQPPFASRSFSELEEKIRSNRVIELPLRPLLSRDCRDLLQRLLERDPSRRISFQDFFAHPWVDLEHMPSGESLGRATALVVQAVKKDQEGDSAAALSLYCKALDFFVPALHYEVDAQRKEAIKAKVGQYVSRAEELKAIVSSSNQALLRQGTSARDLLREMARDKPRLLAALEVASAAMAKEEAAGGEQDALDLYQHSLGELLLLLAAEPPGRRRELLHTEVQNLMARAEYLKEQVKMRESRWEADTLDKEGLSESVRSSCTLQ [ULK3]”, the melting temperature came out at 49.9 °C in the series with HeLa Kyoto [1] (cell cycle stage: G1/S) and 49.6 °C in the series on HeLa Kyoto [1] (cell cycle stage: mitosis). For the same sequence, the “solubility in G1/S (log2)” value in the series on HeLa Kyoto [2] came out at 0.0298. Besides, the “solubility change mitosis (log2)” value in the series on HeLa Kyoto [3] is -0.125. In addition, the results for the thermal stability score in the series on HeLa Kyoto [4] (setting [5]) and in the series with HeLa Kyoto [4] (cell cycle stage: mitosis) were -0.375 and -0.212, respectively.

Consider “MAGPRVEVDGSIMEGGGQILRVSTALSCLLGLPLRVQKIRAGRSTPGLRPQHLSGLEMIRDLCDGQLEGAEIGSTEITFTPEKIKGGIHTADTKTAGSVCLLMQVSMPCVLFAASPSELHLKGGTNAEMAPQIDYTVMVFKPIVEKFGFIFNCDIKTRGYYPKGGGEVIVRMSPVKQLNPINLTERGCVTKIYGRAFVAGVLPFKVAKDMAAAAVRCIRKEIRDLYVNIQPVQEPKDQAFGNGNGIIIIAETSTGCLFAGSSLGKRGVNADKVGIEAAEMLLANLRHGGTVDEYLQDQLIVFMALANGVSRIKTGPVTLHTQTAIHFAEQIAKAKFIVKKSEDEEDAAKDTYIIECQGIGMTNPNL [RTCA]”, for which the melting temperature in the series on HeLa Kyoto [1] (cell cycle stage: G1/S) and in the series with HeLa Kyoto [1] (cell cycle stage: mitosis) was 54.4 °C in each case. In addition, the “solubility in G1/S (log2)” value in the series with HeLa Kyoto [2] stood at 0.177. Besides, the “solubility change mitosis (log2)” value in the series with HeLa Kyoto [3] was -0.173. Moreover, the results for the thermal stability score in the series on HeLa Kyoto [4] (setting [5]) and with HeLa Kyoto [4] (cell cycle stage: mitosis) were -1.26 and -1.94, respectively.
